Reference: a protein production outcome set (Wang et al. 2014)

Test: label from the status in PepcDB records
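Note: failed if final PepcDB status was selected cloned or expressed and not failed if soluble or beyond.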

Sequence | protein production
MSLTMVSEVQPVSPASLDAPLENAVEIIETVISSLHQGDAPLVGQTDSGKIWMFRYGSAEVFVQLSGHTEEDFLTIWSPVLPLPVADELALYRKLLTLNWLTTFEAHFAIAEEQVQVVASRTLGGITAGEISRLITIVATLADDYDDALRAEFKGEGHHHHHH | not failed
MASKPVDVMVVNFNTAGLLQPMFDALRRADSERLASYLVVDNASRDDSVQRMAQVCPEALLLSNKQNVGFGRANNQLLAHLKGKYALLLNTDAFVAADSLQKTLDYMDAHPECGVLGVRLEGRDGDLQPSCRYFPTPLNVFVGRTGLGRFFPGVKMVDDMNWDHASVRECDWLPGCFYLVRREVLDKVGLFDPRYFLYYEEVDHCKRVKEAGWKVVFYPHTTVVHIGGESSKSVAELEAASRQISSYQIESELLYFRKHHGVAGLALHMLLVTLGDLVLALKALLKRRGWGAIQACWRHCRATWSLLFKTRYASQPTR | failed
MSQLTFWFGCALVALIAEFVSGTFYLLMVALALACGGFAAWLGAPEPWQWLIASVSGAVGLLAIHRRRRSLMPPPPPQDDPDWGQQVEIRALTTPGHARIHYRGAEWDALLMDSRLDAGSTGYISGREGNLFKISSQQPQ | failed
MKLSFSLPSKSKPKVTATTADGNNAVDDGTSKEFVTEFDPSKTLANSIPKYVIPPIENTWRPHKKMKNLDLPLQSGNAGSGLEFEPEVPLPGTEKPDNISYGLNLRQKVKDDSIGGDAVEERKVSMGEQLMLQSLRRDLMSLADDPTLEDFESVPVDGFGAALMAGYGWKPGKGIGKNAKEDVEIKEYKKWTAKEGLGFDPDRSKVVDVKAKVKESVKLDKKGVGINGGDVFFVGKEVRIIAGRDVGLKGKIVEKPGSDFFVIKISGSEEEVKVGVNEVADLGSKEEEKCLKKLKDLQLNDREKDKKTSGRGRGAERGSRSEVRASEKQDRGQTRERKVKPSWLRSHIKVRIVSKDWKGGRLYLKKGKVVDVVGPTTCDITMDETQELVQGVDQELLETALPRRGGPVLVLSGKHKGVYGNLVEKDLDKETGVVRDLDNHKMLDVRLDQVAEYMGDMDDIEY | failed
MKNTELEQLINEKLNSAAISDYAPNGLQVEGKETVQKIVTGVTASQALLDEAVRLGADAVIVHHGYFWKGESPVIRGMKRNRLKTLLANDINLYGWHLPLDAHPELGNNAQLAALLGITVMGEIEPLVPWGELTMPVPGLELASWIEARLGRKPLWCGDTGPEVVQRVAWCTGGGQSFIDSAARFGVDAFITGEVSEQTIHSAREQGLHFYAAGHHATERGGIRALSEWLNENTDLDVTFIDIPNPA | not failed
MSLKITRIDIHRTDLPVRGGVYRLSGGREYHSYDATIVSIETDTGLTGWGESTPFGSTYIAAHAGGTRAALELLAPAILGMDPRQHDRIWDRMRDTLKGHRDARAALDIACWDIAAQAAGLPLCDMTGGRVAGPVPVISSIGGDTPEAMRAKVARHRAQGFKGHSIKIGASEAEGGPALDAERITACLADRQPGEWYLADANNGLTVEHALRMLSLLPPGLDIVLEAPCASWAETKSLRARCALPLLLDELIQTETDLIAAIRDDLCDGVGLKVSKQGGITPMLRQRAIAAAAGMVMSVQDTVGSQISFAAILHLAQSTPRHLLRCALDTRAMTTAELAEIDAPLRDGGASAPSDPGLGLRVNRDALGTPVKTFGDPIEGHHHHHH | not failed
PKATAQMEGRLQEFLTAYAPGARLALADGVLGFIHHQIVELARDCLAKSGENLVTSRYFLEMQEKLERLLQDAHERSDSEEVSFIVQLVRKLLIIISRPAR | not failed
MQIVTDKNKVALYYKDIAVTYKEFILNTKKIKQFTKIKEFTNNMIYMENRPELLYSFFAIWDSRATCVCIDASSTAVELTYYIDNSDVVKIFTTKMQVEKVKGALSILSKQIEIIVVDEINLSEIKIDENSSENLVINSPEKEDTALILYTSGTTGKPKGVMLTFDLEHHHHHH | failed
MMEKYNKFDLLWLLVPLSGLIVMGLMAVYSATNGSTESVPLFYKQLSWAVTGAIAASIIYFMDYRVVKDNAYFMYAAGIILLIAVLVFGKKVAGATSWVRFGMFSFQPSELTKMFTIIAMARFLSDDQTDIGNMMDLGKALAIALVPAGLIMLQPDMGTTLTCLSFIVPMIVLAGFDLYYILLGVVPVALMLSGFFNLTILATIAVLSMVMFFLLRKKFYLHQFLVTGGGLLGGLLTWKFTSVILKPHQIKRIQIFLDPTADPRGAGYNALQAKIAIASGGIFGKGFLHGTQTQLRYIPAQWTDFIFCVIAEELGFLGSTLLLLLFAALVLRLVWMVGAIKNRFVELLLAGYASLLLTHVVINIGMTIGVMPVIGVPLPFISYGGSSLVANMMMVGLAMNFSKNRRHIGY | failed
MCKPPMRLLTQTGLPRSSERQIRILEIVTGNRKGKHQPKPISKPQPNISMPKIIEAIYENGVFKPLQKVNFRPGSKVRIVIQEDKKEILRKYKGVFGKAEVEELREYEGEVMLLEHHHHHH | failed
MSKKRIIALILAVVIVLGGIIMSSISAVVSSLFSESTTSDTNPFTEKVEKEGNSSKRIAHLTLNGEITEGTGGGLFGGEGYNHEAFLKQLDNVKKDDSIKGVLLTVNTPGGGTYPSDEIYEKIKEIKQKHKKIYVHMDSMAASGGYYISAPADKIYAGPQTMTGSIGVIMSSIDYSGLQKNLGIKQNVIKSGEHKDILSSSREMTSEERDILQSVLDDSFNRFVNIVKDGRDMPESKVRKLADGRIYSAQQAKSNGLIDEIGYEDQTVKALKKDINAKDAEVFEYSTDGGWFSSMYNVKSSISQFTNEIKDVKSIITNDTKTEPMYLYEGLEHHHHHH | failed
MLVNGKWTADWQPVQKADDHGRFVRQVSSFRNWITPDGSAGPTGTGGFAAEAGRYRLYVALICPWASRTLMARRLKGLDGLIPVTVVNPVMGTQGWEFGGHDDAEEDPLFGARHLHEIYTRAEPQFTGRATVPVLWDMKRDAMVNNESADILRMFDTAFEGLAPSDLRLYPAALAGEIDALNAQVYDRLNNGVYKAGFASTQEAYDEAVAGVFEMLDHLEYRLTGDYIFGGALTETDIRIFVTLIRFDAAYHGLFKTNRRQIADYPRLWAYMRRILARPGVRETVNMDHITRGYYSIKALNPSRIRPVGPAHIEAALRETAAGI | not failed
QADAGPDKELTLPVDSTTLDGSKSSDDQKIISYLWEKTQGPDGVQLENANSSVATVTGLQVGTYVFTLTVKDERNLQSQSSVNVIVKEE | not failed
KFAYKVGIGLEVPFANTNIWSFQTGLNFISKGVKGDGVTDAWDVVDVTINQLYLELPLMVGARIHTASNFDLLFKGGPYLAYGVGGKTKIDGVSEKADTFGDDGLKRFDAGLGLGVAFEFGNIVVGVETGTSFTKVASGVSAHNLSALATIGYKF | failed
MEALAELIKRKVPNEGLIIEVGVGFYLKVAKKLKEYGFNVVVVDINQEAVKNAIKERIPGFVDDVFNPNLKIYLKARAIYSIRPNPEIMMALLTLAKKVKVPLYIVPLSGDVPPREMKLINYKGISVYVWEP | failed
MMMMRAFIAENVRGIYAFDEDGKLVGKRYFTDKPEKILDGLLKGELVKDLEEFLNELREKGYDEFIFEHPELSRKAKELGFNATTEFPNLAGERLRSNPEEFLGENWFDDYYNVGVALTRMRIQEQSGARDKMVIQAIEALDDVDKVINLLVSRLREWYSLHFPELDEILPRHPQYVAFVKAIGHRDNVDEEKLRELGLSDEKIKKIIEAKEKTMGAWMDETDIAIVQHFAEEIDRLYKLRKELEDYIDKAMDDVAPNLKALVGAKLGARLISLAGGLKELAMLPSSTIQVLGAEKALFRHLRTGAKPPKHGVIYQYPAINRSPWWQRGKIARALAGKLAIAARVDYFSGEYIAEELKKELEARIKEIKEKYPRPPKRRKEERKGRKPWKEKKKKKKKKKGGRRLEHHHHHH | failed
MNDTLLTTYTLAEGLHWLDLIGVLAFAMSGALLGVRKRFDLFGVLVLGAVTAVGGGAIRDSLTGQTPPLFLRDETYLWTALLGALLAFAFGERLARFERTLSLFDSAGLALFATSGALGAIKIGLGPLGVVFAGMLSGVGGGIIRDLIANEVPEVMYRRDQLYATAAAAGAGAVWLLAPHFTPFQAQAGGALLVLFLRWVSRRQWVRLPVRRLPE | failed
MKYKAAIFDMDGTILDTSADLTSALNYAFEQTGHRHDFTVEDIKNFFGSGVVVAVTRALAYEAGSSRESLVAFGTKDEQIPEAVTQTEVNRVLEVFKPYYADHCQIKTGPFPGILDLMKNLRQKGVKLAVVSNKPNEAVQVLVEELFPGSFDFALGEKSGIRRKPAPDMTSECVKVLGVPRDKCVYIGDSEIDIQTARNSEMDEIAVNWGFRSVPFLQKHGATVIVDTAEKLEEAILGE | not failed
